Molecular target: pYEEI
Test: SPR

B1: Hck SH2 (protein)
chain: WFFKGISRKDAERQLLAPGNMLGSFMIRDSETTKGSYSLSVRDYDPRQGDTVKHYKIRTLDNGGFYISPRSTFSTLQELVDHYKKGNDGLCQKLSVPC
For B1, the Kd was 42 µM.

Reference: paper PMC6893557 (2019)
